From US8822645B2, “Prostaglandin E2 dual variable domain immunoglobulins and uses thereof” (AbbVie Inc., priority 2008, dated 2014)
Substitutions are numbered along the chain they refer to.

Experiments:
[1] = tested on: PGE2 / human EP4 receptor in HEK293 Gα16 cells; test: EP4 bioassay (Ca++ flux, neutralization of PGE2); assay type: cell-based
Method in brief: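 Ca++ flux (FLIPR) in HEK293 Gα16 cells stably expressing human EP4, loaded with Ca++-sensitive dye for 90 min. PGE2, alone or pre-incubated with anti-PGE2 antibody, DVD-Ig or isotype control, was added in FLIPR buffer (HBSS, 20 mM HEPES, 0.1% BSA, 2.5 mM probenecid). EC50 derived from PGE2 dose-response.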

[2] = tested on: C57.BL/6 mice, carrageenan-induced footpad edema; test: Carrageenan-induced footpad edema model; assay type: in vivo, mouse; settings: 10 mg/kg
Experimental: Carrageenan-Induced Footpad Edema is an acute rodent model of innate immune function. Intradermal (ID) injection of an inflammatory agent causes a rapid influx of neutrophils and fluid edema, which peaks at approximately 4 hours, followed by an influx of macrophages and monocytes, which peaks at approximately 48 hours. C57.BL/6 mice (8-10-week-old, Jackson Laboratories, Bar Harbor, Me.) were injected ID in the rear footpad with 30 μL of either PBS (left) or λ-carrageenen (Sigma Aldrich, St. Louis, Mo.) in PBS (right) at a concentration of 5.0 mg/mL (150 μg/mouse). […] Significant difference for paw thickness was determined by comparing mean paw swelling for each treatment group to vehicle in a Student's two-tailed t-test.
The endpoint measured was the difference in paw swelling (edema) between right and left paws 4 hours after treatment.

[3] = 3H-PGE2 ELISA (PGE2 binding affinity)
Experimental: Alternatively, prostaglandin binding screen for antibodies or DVD-Ig molecules can be determined using a ^3H-PGE2 ELISA. Plates were coated at 50 μl/well with 5 μg/ml of goat anti-human IgG (Fc) (Thermo Scientific #31170, Hudson, N.H.) or goat anti-mouse IgG (Fc) (Thermo Scientific #31125, Hudson, N.H.) in PBS and incubated overnight at 4° C. The following day plates were flicked and blotted dry. Plates were then blocked with 200 μL/well of Superblock (Thermo Scientific #37515, Hudson, N.H.), for 1 hour at room temperature. Plates were flicked and blotted dry. Monoclonal antibodies were diluted to 0.04 μg/ml in PBST (Abbott Bioresearch Center, Worcester, Mass.)/10% Superblock and 50 uL of each antibody or DVD-Ig was added to each well of the pre-blocked ELISA plate at 2 ng/well and incubated for 1 hour at room temperature. Wells were washed 3 times with PBS+0.1% Tween-20. A serial 3 fold titration of ^3H-PGE2 (Perkin Elmer #NET-428, Waltham, Mass.) was prepared in PBST+10% Superblock. Fifty microliters of the ^3H-PGE2 solution was then added to each well of the plate and incubated for 1 hour at room temperature. Wells were washed 6 times with PBST+10% Superblock and 50 μL of scintillation fluid (Perkin Elmer #6013621, Waltham, Mass.) added to each well. Plates were read using the TopCount reader (Perkin Elmer, Waltham, Mass.) with a 5 minutes count delay. EC50 number was determined using GraphPad Prism 5 (GraphPad Software, La Jolla, Calif.).

[4] = tested on: human TNFα transgenic B6.Cg(SJL)-Tg(TNF) N21+ mice; test: Human TNFα transgenic induced arthritis model; assay type: in vivo, mouse; settings: PGE2 blockade
Experimental: Human TNFα transgenic B6.Cg(SJL)-Tg(TNF) N21+ mice (40 male and 40 females) (Taconic, Hudson, N.Y.) at 4 weeks age were divided into 10 groups of 8 mice (4 male and 4 females/group). Each week, starting from week 5 until week 12 of age the morphology of the rear ankle joints of the mice were evaluated and scored for signs and symptoms of arthritis. Arthritic scores were assigned as follows. • 0=no arthritis (normal appearance and flexion) • 1=mild arthritis (joint distortion) • 2=moderate arthritis (swelling, joint deformation); and • 3=severe arthritis (ankylosis detected on flexion and severely impaired movement)
Animals were randomized to achieve approximately similar mean arthritic score (MAS) for all groups at week 9 at first signs of symptoms. Animals were then treated i.p. twice a week starting from week 10 of age until week 12 of age. Mice in group 1 served as untreated control were administered PBS.

Dynamic light scattering = assay type: physicochemical; settings: 2 mg/mL in PBS
Experimental: Samples were centrifuged at 10,000 RPM for 10 minutes before measured on DynaPro-801 Dynamic light scattering system.

[5] = PGE2-biotinamide ELISA (PGE2 binding); settings: PGE2 VD in N-terminal position, read-out: Direct Bind ELISA N-terminal VD EC50
Method in brief: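 Antibody or DVD-Ig (1 µg/ml) captured on anti-host Fc IgG-coated plates for 1 h at room temperature, then titrated with PGE2-biotinamide serially diluted from 30 nM for 1 h. Binding detected with streptavidin-polyHRP and TMB, absorbance read at 450 nm; EC50 from the titration curve.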

desired target antigen = test: Direct Bind ELISA of parent antibodies and DVD-Ig constructs; assay type: binding; settings: C-terminal variable domain NGF, read-out: Direct Bind ELISA C-terminal VD EC50
Experimental: Enzyme Linked Immunosorbent Assays to screen for antibodies that bind a desired target antigen were performed as follows. […] Plates were washed four times with PBS containing 0.02% Tween 20. Plates were blocked by the addition of 300 μL/well blocking solution (non-fat dry milk powder, various retail suppliers, diluted to 2% in PBS) for ½ hour at room temperature. Plates were washed four times after blocking with PBS containing 0.02% Tween 20.
Wells were washed four times with PBS containing 0.02% Tween 20.
One hundred microliters of antibody or DVD-Ig preparations diluted in blocking solution as described above was added to the desired target antigen plate or desired target antigen/FC fusion plate or the anti-polyHistidine antibody/His tagged desired target antigen plate prepared as described above and incubated for 1 hour at room temperature.
Plates were washed 4 times with PBS containing 0.02% Tween 20.
One hundred microliters of enhanced TMB solution (Neogen Corp. #308177, K Blue, Lexington, Ky.) was added to each well and incubated for 10 minutes at room temperature. The reaction was stopped by the addition of 50 μL 1N sulphuric acid. Plates were read spectrophotometrically at a wavelength of 450 nm.

B1: 2B5-8.0: murine anti-PGE2 antibody clone, VH SEQ ID 82, VL SEQ ID 83 (antibody, V domains shown)
VH: QVQLQQSGPELVRPGSSVKISCKASGYTFTKYWLGWVKQRPGHGLEWIGDIYPGYDYTHYNEKFKDKATLTVDTSSSTAYMQLSSLTSEDSAIYYCARSDGSSTYWGQGTLVTVSA
VL: DVLMTQTPLSLPVSLGDQASISCTSSQNIVHSNGNTYLEWYLQRPGQSPKLLIYKVSNRFSGVPDRFSGSGSGTVFTLKISRVEAEDLGVYYCFQVSHVPYTFGGGTKLEIKR
For B1, the IC50 ([1]; EP4 assay) was 0.02 nM, the “maximal inhibition of paw swelling” value ([2]; IP 18 hours prior to carrageenan, 4 hours) was 40-50% and the “% Inhibition” value ([2]; i.p.) was 38 ± 4.6%. The “Δ Paw Swelling” value ([2]; i.p., 4 hours post carrageenan) was 0.529 ± 0.04 mm, the Kd [3] was 0.334 nM and the “effect on disease progression” value [4] was “no significant effect”.

B2: Hu2B5.7: humanized anti-PGE2 antibody, VH SEQ ID 74, VL SEQ ID 75 (antibody, V domains shown)
VH: EVQLVQSGAEVKKPGASVKVSCKASGYTFTKYWLGWVRQAPGQGLEWMGDIYPGYDYTHYNEKFKDRVTLTTDTSTSTAYMELRSLRSDDTAVYYCARSDGSSTYWGQGTLVTVSS
VL: B1 VL with S14T, L15P, D17E, Q18P, R44K, K50Q, V75D, L88V, L109V
B2 gave a hydrodynamic radius (Dynamic light scattering) of 5.36 nm.

B3: DVD163: DVD-Ig construct listed in Table 4 (antibody)
VH: EVQLVQSGAEVKKPGASVKVSCKASGYTFTKYWLGWVRQAPGQGLEWMGDIYPGYDYTHYNEKFKDRVTLTTDTSTSTAYMELRSLRSDDTAVYYCARSDGSSTYWGQGTLVTVSSASTKGPQVQLQESGPGLVKPSETLSLTCTVSGFSLIGYDLNWIRQPPGKGLEWIGIIWGDGTTDYNSAVKSRVTISKDTSKNQFSLKLSSVTAADTAVYYCARGGYWYATSYYFDYWGQGTLVTVSS
VL: DVLMTQTPLSLPVTPGEPASISCTSSQNIVHSNGNTYLEWYLQKPGQSPQLLIYKVSNRFSGVPDRFSGSGSGTDFTLKISRVEAEDVGVYYCFQVSHVPYTFGGGTKVEIKRTVAAPDIQMTQSPSSLSASVGDRVTITCRASQSISNNLNWYQQKPGKAPKLLIYYTSRFHSGVPSRFSGSGSGTDFTFTISSLQPEDIATYYCQQEHTLPYTFGQGTKLEIKR
For B3, the EC50 ([1]; PGE2 VD in N-terminal position, EP4 bioassay, Ca++ flux, read-out: N-terminal VD PGE2 Neutralization EC50) was 0.245 nM, the EC50 [5] was 0.71 nM and the EC50 (desired target antigen) was > 10000 nM.
